Reference: patent US20230242633A1 (KANAPH THERAPEUTICS, published 2023)

B1: C1.01m (mu CRIg-mu IgG2a Fc DANG) (Fc fusion)
chain: HPTLKTPESVTGTWKGDVKIQCIYDPLRGYRQVLVKWLVRHGSDSVTIFLRDSTGDHIQQAKYRGRLKVSHKVPGDVSLQINTLQMDDRNHYTCEVTWQTPDGNQVIRDKIIELRVRKYNPPRINTEAPTTLHSSLEATTIMSSTSDLTTNGTGKLEETIAGSGRNLPGGGGSEPRGPTIKPCPPCKCPAPNLLGGPSVFIFPPKIKDVLMISLSPIVTCVVVAVSEDDPDVQISWFVNNVEVHTAQTQTHREDYGSTLRVVSALPIQHQDWMSGKEFKCKVNNKDLPAPIERTISKPKGSVRAPQVYVLPPPEEEMTKKQVTLTCMVTDFMPEDIYVEWTNNGKTELNYKNTEPVLDSDGSYFMYSKLRVEKKNWVERNSYSCSVVHEGLHNHHTTKSFSRTPGK
B2: C1.02m (mu CRIg-mu IgG2a Fc DANG-VEGF binder) (Fc fusion)
chain: HPTLKTPESVTGTWKGDVKIQCIYDPLRGYRQVLVKWLVRHGSDSVTIFLRDSTGDHIQQAKYRGRLKVSHKVPGDVSLQINTLQMDDRNHYTCEVTWQTPDGNQVIRDKIIELRVRKYNPPRINTEAPTTLHSSLEATTIMSSTSDLTTNGTGKLEETIAGSGRNLPGGGGSEPRGPTIKPCPPCKCPAPNLLGGPSVFIFPPKIKDVLMISLSPIVTCVVVAVSEDDPDVQISWFVNNVEVHTAQTQTHREDYGSTLRVVSALPIQHQDWMSGKEFKCKVNNKDLPAPIERTISKPKGSVRAPQVYVLPPPEEEMTKKQVTLTCMVTDFMPEDIYVEWTNNGKTELNYKNTEPVLDSDGSYFMYSKLRVEKKNWVERNSYSCSVVHEGLHNHHTTKSFSRTPGGGGGSGGGGSSDTGRPFVEMYSEIPEIIHMTEGRELVIPCRVTSPNITVTLKKFPLDTLIPDGKRIIWDSRKGFIISNATYKEIGLLTCEATVNGHLYKTNYLTHRQTNTIIDVVLSPSHGIELSVGEKLVLNCTARTELNVGIDFNWEYPSSKHQHKKLVNRDLKTQSGSEMKKFLSTLTIDGVTRSDQGLYTCAASSGLMTKKNSTFVRVHEK
B3: C1.03m (mu IgG2a Fc DANG-mu CRIg) (Fc fusion)
chain: EPRGPTIKPCPPCKCPAPNLLGGPSVFIFPPKIKDVLMISLSPIVTCVVVAVSEDDPDVQISWFVNNVEVHTAQTQTHREDYGSTLRVVSALPIQHQDWMSGKEFKCKVNNKDLPAPIERTISKPKGSVRAPQVYVLPPPEEEMTKKQVTLTCMVTDFMPEDIYVEWTNNGKTELNYKNTEPVLDSDGSYFMYSKLRVEKKNWVERNSYSCSVVHEGLHNHHTTKSFSRTPGGGGGSGGGGSHPTLKTPESVTGTWKGDVKIQCIYDPLRGYRQVLVKWLVRHGSDSVTIFLRDSTGDHIQQAKYRGRLKVSHKVPGDVSLQINTLQMDDRNHYTCEVTWQTPDGNQVIRDKIIELRVRKYNPPRINTEAPTTLHSSLEATTIMSSTSDLTTNGTGKLEETIAGSGRNLPG

How the values were obtained:
[1] = molecular target: T1, mouse C3b (mouse, UniProt P01027 25-666; P01027 749-1663, limits assumed); test: Biacore SPR, 1:1 fit; analyte series 0.78125-50 nM; the analyte is not printed on the sheet, mouse C3b by legend paragraph 26 and the C3b dilution series of paragraph 225
Procedure: (§1) A C3b stock solution was diluted to 50 nM using a 1×HBS-EP+ buffer. Human VEGF165 was diluted to 5 nM using a 1×HBS-EP+ buffer. The 50 nM and 5 nM solutions were then diluted to 0.78125 nM and 0.078125 nM. In the sample step, the diluted antigens were injected into the flow cells at a rate of 30 μL/min. Two 0 nM antigens (1×HBS-EP+ buffer) were used and removed from the reference signal. Binding for 180 seconds and separation for 400 seconds were performed. After the separation time, a stabilization step for 60 seconds was performed. In the regeneration step, 10 mM glycine (pH 1.5) was injected into the flow cells at a rate of 30 μL/min for 30 seconds, followed by a stabilization step for 60 seconds.
(§2) After subtracting the reference and 0 nM values from the sample values, binding kinetics were calculated using Biacore Insight Evaluation Software (Version 2.0.15.12933) and 1:1 binding model for curved fitting.

[2] = molecular target: T1, mouse C3b; test: ELISA, mouse C3b immobilised on the plate; no upper plateau in the range shown
Source text: (§3) Specifically, a human C3b protein was immobilized on a plate, and C1.01, C1.02, C1.03, and C1.04, and hIgG1 as a control were bound thereto. Next, an anti-human immunoglobulin G antibody and an anti-horseradish peroxidase (HRP) antibody were sequentially bound thereto. Moreover, a mouse C3b protein was immobilized on a plate, and C1.01m to C1.03m containing mouse CRIg were bound to mouse C3b.

[3] = molecular target: T2, human VEGF165 (human, UniProt P15692-4 27-191); test: Biacore SPR; the analyte is not printed on the sheet, human VEGF165 by legend paragraph 26
T2 construct: also called human VEGF165 protein
Procedure: In order to measure the binding force of the fusion protein, the physical properties of the prepared fusion protein were analyzed using Biacore 8K (GE Healthcare, 29129951) instrument.
as §1, §2

[4] = molecular target: T1, mouse C3b; test: ELISA, mouse C3b immobilised on the plate; the printed value lies above the highest concentration shown (Log10 about 1.2), the curve reaches only OD450 about 1
Source text: as §3

T1 sequence (P01027 25-666 limits assumed, chain 1 of 2): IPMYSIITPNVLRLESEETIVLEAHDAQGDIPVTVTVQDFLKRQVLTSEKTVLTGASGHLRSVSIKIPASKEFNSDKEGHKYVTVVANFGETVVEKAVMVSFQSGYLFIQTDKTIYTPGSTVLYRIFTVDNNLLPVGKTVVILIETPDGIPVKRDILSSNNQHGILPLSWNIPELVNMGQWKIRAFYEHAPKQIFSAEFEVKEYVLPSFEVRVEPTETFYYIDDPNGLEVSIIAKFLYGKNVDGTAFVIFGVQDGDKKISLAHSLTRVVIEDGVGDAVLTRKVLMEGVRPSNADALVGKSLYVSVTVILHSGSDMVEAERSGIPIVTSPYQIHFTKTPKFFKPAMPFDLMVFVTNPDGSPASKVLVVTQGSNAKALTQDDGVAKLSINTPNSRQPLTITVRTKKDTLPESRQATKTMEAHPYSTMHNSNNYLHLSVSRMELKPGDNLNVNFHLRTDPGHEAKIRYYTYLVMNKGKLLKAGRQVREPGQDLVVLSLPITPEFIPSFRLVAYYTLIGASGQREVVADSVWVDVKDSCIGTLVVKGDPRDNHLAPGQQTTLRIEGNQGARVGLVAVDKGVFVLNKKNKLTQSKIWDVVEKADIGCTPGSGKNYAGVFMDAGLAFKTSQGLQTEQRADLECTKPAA
T1 sequence (P01027 749-1663 limits assumed, chain 2 of 2): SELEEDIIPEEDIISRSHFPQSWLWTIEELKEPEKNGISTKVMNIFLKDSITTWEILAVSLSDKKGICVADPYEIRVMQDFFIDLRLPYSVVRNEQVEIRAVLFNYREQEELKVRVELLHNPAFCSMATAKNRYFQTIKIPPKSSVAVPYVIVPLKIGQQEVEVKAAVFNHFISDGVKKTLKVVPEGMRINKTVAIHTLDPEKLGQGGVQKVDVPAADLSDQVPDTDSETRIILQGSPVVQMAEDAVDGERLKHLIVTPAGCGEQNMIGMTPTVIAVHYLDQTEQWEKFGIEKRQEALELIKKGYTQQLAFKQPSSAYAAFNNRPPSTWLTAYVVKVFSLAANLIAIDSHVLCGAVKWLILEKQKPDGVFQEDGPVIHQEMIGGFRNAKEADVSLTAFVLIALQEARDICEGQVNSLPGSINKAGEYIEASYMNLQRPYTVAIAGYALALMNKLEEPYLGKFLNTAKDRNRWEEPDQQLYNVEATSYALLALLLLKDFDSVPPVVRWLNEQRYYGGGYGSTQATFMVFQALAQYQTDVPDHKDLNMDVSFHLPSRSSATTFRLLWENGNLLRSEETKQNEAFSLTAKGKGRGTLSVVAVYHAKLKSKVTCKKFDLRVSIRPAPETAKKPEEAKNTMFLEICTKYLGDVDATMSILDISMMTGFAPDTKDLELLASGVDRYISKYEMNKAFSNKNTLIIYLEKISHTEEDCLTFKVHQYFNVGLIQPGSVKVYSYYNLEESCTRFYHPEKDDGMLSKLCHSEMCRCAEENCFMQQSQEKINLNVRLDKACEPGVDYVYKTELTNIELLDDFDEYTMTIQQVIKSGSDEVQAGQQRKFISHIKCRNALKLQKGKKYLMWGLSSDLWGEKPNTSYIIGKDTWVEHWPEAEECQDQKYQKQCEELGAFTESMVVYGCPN
T2 sequence (P15692 other isoform, or with tags, fused parts or gaps): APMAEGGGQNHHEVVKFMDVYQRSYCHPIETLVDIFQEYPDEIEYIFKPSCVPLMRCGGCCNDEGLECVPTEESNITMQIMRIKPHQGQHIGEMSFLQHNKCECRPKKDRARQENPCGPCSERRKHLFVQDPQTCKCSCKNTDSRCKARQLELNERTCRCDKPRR

Kd [1]	EC50 [2]	binding result [3]	EC50 [4]	Binder
0.987 pM	0.821 µg/mL	–	–	B1
7.97 pM	1.85 µg/mL	binds	–	B2
–	–	–	31.1 µg/mL	B3
